These results are taken from US20040258659A1.

The target of the assay is CCR5 (UniProt P51681). The assay can be described thus: cell-based or functional assay.
Sequence of CCR5 (P51681 whole entry): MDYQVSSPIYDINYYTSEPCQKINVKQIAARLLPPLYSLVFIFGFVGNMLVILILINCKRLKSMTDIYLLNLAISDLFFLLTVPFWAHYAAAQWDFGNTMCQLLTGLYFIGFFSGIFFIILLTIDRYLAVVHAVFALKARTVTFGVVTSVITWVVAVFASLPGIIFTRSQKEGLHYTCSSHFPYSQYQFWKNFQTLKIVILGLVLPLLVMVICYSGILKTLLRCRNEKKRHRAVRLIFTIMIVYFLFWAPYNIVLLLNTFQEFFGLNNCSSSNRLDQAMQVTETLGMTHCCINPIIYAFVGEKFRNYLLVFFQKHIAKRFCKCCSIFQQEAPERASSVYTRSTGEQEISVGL

With “aminooxypentane(AOP)-RANTES (from UniProt P13501 24-91) (ligand)”, the IC50, R5-tropic envelope-mediated cell fusion assay was determined as 3 nM.
